From patent US8624010 (Amgen, dated 2014)

B2: B7.2 (ligand)
chain: VSVETQAYFNGTAYLPCPFTKAQNISLSELVVFWQDQQKLVLYEHYLGTEKLDSVNAKYLGRTSFDRNNWTLRLHNVQIKDMGSYDCFIQKKPPTGSIILQQTLTELSVIANFSEPEIKLAQNVTGNSGINLTCTSKQGHPKPKKMYFLITNSTNEYGDNMQISQDNVTELFSISNSLSLSFPDGVWHMTVVCVLETESMKISSKPLNFTQEFPSPQTYWK
notes: also called CD86; B7.2-Fc; not shown: The Fc part (detected with anti-human Fc) and any linker
B3: murine B7RP1 (B7 related protein-1), membrane-bound (ligand)
chain: ETEVGAMVGSNVVLSCIDPHRRHFNLSGLYVYWQIENPEVSVTYYLPYKSPGINVDSSYKNRGHLSLDSMKQGNFSLYLKNVTPQDTQEFTCRVFMNTATELVKILEEVVRLRVAANFSTPVISTSDSSNPGQERTYTCMSKNGYPEPNLYWINTTDNSLIDTALQNNTVYLNKLGLYDVISTLRLPWTSRGDVLCCVENVALHQNITSISQAESFTGNNTKNPQETHNNELKVLVPVLAVLAAAAFVSFIIYRRTRPHRSYTGPKTVQLELTDHA
notes: also called mB7RP1; ligand for CRP1

Key:
[1] = target: T1, murine B7RP1-Fc fusion protein (murine; human, UniProt P01857-1 96-330 = IgG part); assay: flow cytometry on PMA/ionomycin-activated mouse splenocytes, lymphocyte gate; detection with goat anti-human Fc-FITC; no PE stain; receptor on the cells is putatively CRP1
T1 construct: domain: carboxy terminal 235 amino acids of the human Fc gene (isotype IgG1); Made in 293T cells and purified on Protein A. The construct encodes residues 1-269; also called mB7RP1-Fc; muB7RP1-Fc
Protocol: The B7RP1-Fc fusion protein was utilized to detect cells that expressed receptors to B7RP1, presumably including the CRP1 protein (see Example 6), by FACS analysis. Spleens were removed from female C57/Black 6 mice, ground on 100 micron mesh filters to release the lymphocytes, passed through 70 micron filters, and then washed in 50 ml of RPMI-1640. They were pelleted at 1500 rpm, resuspended in fresh RPMI, mixed to break up the clumping cells, and passed through a 40 micron filter. T-cells to be activated were seeded into 6 well plates in RPMI-1640, 5% FBS, 1×PSG, PMA, ionomycin, and incubated at 37° C., 5% CO2 overnight. T-cell activation was checked by visual confirmation after 12 hr.
(§1) Activated spleen cells for immunostaining were washed in PBS, 0.5% BSA (Path-ocyte 4, ICN Pharmaceuticals) wash buffer, resuspended, and then aliquoted in 100 µl volumes. 15 µg/ml of either the CRP1-Fc fusion protein or the B7RP1-Fc fusion protein was added (1.5 µg/sample) as appropriate, and then the mixtures were incubated on ice for 30 min with occasional mixing. The cells were washed twice in 5.0 ml of wash buffer. Binding of the fusion proteins was visualized with 2 µg of goat-anti-human (GaHuFc-FITC) conjugated secondary antibody in a 100 µl volume for cell staining. […]

[2] = target: B2; assay: ACAS cell surface display assay, Fc fusion protein on transfected cells, FITC anti-human Fc detection
Protocol: (§2) Figure 5: FIG. 5. Interaction of CRP1-Fc and B7RP1-Fc fusion proteins with membrane-bound proteins expressed in COS-7 cells. COS-7 cells transiently transfected with pcDNA3/CRP1, pcDNA3/B7RP1, or pcDNA3 vector alone. CHO D-cells were transfected with psDRα/hCD28 and stably expressed human CD28 (hCD28). Cells expressing membrane-bound CRP1, B7RP1, or hCD28, are represented in rows as indicated at the left side of the panel. Fc fusion proteins were incubated with the plate-bound cells in columns as indicated at the top of the panel. After incubation, cells were washed, and bound Fc fusion proteins were detected using an anti-human Fc antibody and ACAS (Adherent Cell Analysis and Sorting; ACAS Ultima, Meridian Instruments, Inc., Okemos, Mich.) analysis. Figure 6A: FIG. 6. FACS (Fluorescence-Activated Cell Sorter) analysis of expression of the receptor for B7RP1 (putatively, CRP1) on activated CD4+ and CD8+ T-cells. Mouse splenocytes were activated with PMA and ionomycin for 12 hours. B7RP1-Fc fusion protein, control Fc protein (Mock-Fc), or PBS (no stain), were incubated with the cells, washed, and subsequently incubated with goat-anti-human Fc-FITC conjugated antibody(GaHuFc-FITC) as indicated at the bottom of each panel. […]

[3] = target: B3; assay: as above
Protocol: as §2

[4] = target: T2, murine CRP1-Fc fusion protein (murine; human, UniProt P01857-1 96-330 = IgG part); assay: flow cytometry on non-activated mouse splenocytes, double stain with CD45R-PE; detection with goat anti-human Fc-FITC; ligand on the cells is presumably B7RP1
T2 construct: domain: carboxy terminal 235 amino acids of the human Fc gene (isotype IgG1); Made in 293T cells and purified on Protein A. The construct encodes residues 1-147; also called mCRP1-Fc
Protocol: PE conjugated cell marker antibody to CD45R (CD45R is a B-cell marker) or isotype control antibody (rat isotype), or PBS (no stain), were added as indicated at the left side of each individual panel.
as §1, with “staining. Cell marker antibodies conjugated with PE were added with the GaHUFc-FITC, as well as control isotype-PE conjugated antibody controls where indicated (rat isotype).” for “staining.”
The CRP1-Fc fusion protein was utilized to detect cells that expressed ligands to CRP1, presumably including the B7RP1 protein (see Example 8), by FACS analysis (FIG. 7). Splenocytes were prepared as in Example 8, except the 12 hr T-cell activation step was omitted and the cells were directly analyzed. […] Cells were detected that expressed both the CD45R B-cell marker and the putative ligands for CRP1, presumably including B7RP1 (Example 8).

B1: murine CRP1 (CD28 related protein-1), membrane-bound (receptor)
chain: EINGSADHRMFSFHNGGVQISCKYPETVQQLKMRLFREREVLCELTKTKGSGNAVSIKNPMLCLYHLSNNSVSFFLNNPDSSQGSYYFCSLSIFDPPPFQERNLSGGYLHIYESQLCCQLKLWLPVGCAAFVVVLLFGCILIIWFSKKKYGSSVHDPNSEYMFMAAVNTNKKSRLAGVTS
notes: also called mCRP1; receptor for B7RP1
Which results are given for B1?
binding result [1]: binds; binding result [2]: no binding

Does B2 bind [3]?
Result: no binding

Does B3 bind [4]?
Result: binds
